# Laboratory results reported in article PMC9789309.
# Target: ACE2, membrane-anchored, endogenously expressed on VeroE6 cells (African green monkey (endogenous in VeroE6))
# Experiment: single-molecule force spectroscopy (AFM)
substance,measurement,value
"SARS-CoV-2 Spike receptor binding domain, Wuhan reference strain, monomer (from UniProt P0DTC2 319-541) (domain or fragment)",Kd,3.2 nM
same,koff,0.00032 s⁻¹
same,kon,100000 M⁻¹ s⁻¹
